In the DeepSol protein solubility set:

Test: soluble on expression in E. coli; label from the status in PepcDB or PDB records

Sequence | soluble on expression in E. coli
MKSYAILNQNNLFLSLEELKAIIDSDEVEYYHGVALFNKEPNNVAKRSSLIKYSGRVIAISHDVNEIVKNIKGECFSVDPTVITKEYKSEFLSIYDRIINNIKVSKKCKKMDLIFTEGLIIAGLRVEEKDNESLFKHSKKPYSQSGTLSPDIGRLMVNLSKSRKTILDPFVGTGTILIEAKWLGLNCIGLDVDSKMIEKSLVNLRYFGYECDILRGDATSLPFNNIEAIVTDPPYGRSVSVREGINNLYEGFFYSASNITRTLVFTTDSKLDWRDKLKEVGFNDISIHFIYEHKSLSRAIYVVRKK | soluble
SVSTTFRRIVSPCWRPFGIGEDSSPGSDDTNGRLDGLLWYKDSGNHITGEFSMAVVQANNLLEDHSQLESGPISLHESGPEATFVGVYDGHGGPEAARFVNDRLFYNIKRYTSEQRGMSPDVITRGFVATEEEFLGLVQEQWKTKPQIASVGACCLVGIVCNGLLYVANAGDSRVVLGKVANPFKELKAVQLSTEHNASIESVREELRLLHPDDPNIVVLKHKVWRVKGIIQVSRSIGDAYLKRAEFNQEPLLPKFRVPERFEKPIMRAEPTITVHKIHPEDQFLIFASDGLWEHLSNQEAVDIVNSCPRNGVARKLVKAALQEAAKKREMRYSDLEKIERGIRRHFHDDITVIVVFLHATNFATRTPISVKGGGLLSAHNPVL | soluble
MSKTDVKKSREASGILTLQVNLRERRNFLNLMQNKLFSWKIRFSAIKGKCSQKSKYFRRSRSEDCYVEADLKILSRTRRSRKLPGTVPDFLGKQLIGISSSVVSRVSRSCR | soluble
MKIAFLRPGKIGTPANHVYALLDYLREKGAEIREYDLKERDVNDVVKEIEEWKPLFLMDVNATGVIVAERDGKKHILADILGIVHVSVFFEDPLLFFPAFEGVEKPQNYIAFITELKHTDSLTALGIQNISYISPFVDLKQFPESEGEKDIEIAFVGPVVDPQIILNSVSQNYPQEIMPFFIETGEFMFRNPEVHILTAFNYVFGLFNPQMQEQFNKWREQNPSAFMRFLNDITAYTTMRRRMYLLHFLDGMDVKILGDYQGNLFENHEAIKVSSYEQLLKYYSRSNITVYVSPQTYPTGLSVIPLEILYMGSLPLIDFKGAIPGFLKPGEEIETFAPLDRADLEEKIVFYIEENREGINEIVQRGKKAVQERFTVKDRGEFVYNVLSDVKRQYEAAQKGQVN | not soluble
MRTLITGASGQLGIELSRLLSERHEVIKVYNSSEIQGGYKLDLTDFPRLEDFIIKKRPDVIINAAAMTDVDKCEIEKEKAYKINAEAVRHIVRAGKVIDSYIVHISTDYVFDGEKGNYKEEDIPNPINYYGLSKLLGETFALQDDSLIIRTSGIFRNKGFPIYVYKTLKEGKTVFAFKGYYSPISARKLASAILELLELRKTGIIHVAGERISRFELALKIKEKFNLPGEVKEVDEVRGWIAKRPYDSSLDSSRARKILSTDFYTLDLDGMVV | soluble
MGSDKIHHHHHHMIVIEDVYKRYKTDHGPGKWILQGVNLTIPRNVNVGLIGSNGAGKSTLLRIIGGIDHPNKGKVERRCRLSWPMGQGGLEPTLTGRQNAKFVCRLHGHQDDLPERLIFIQDFSGLKDAFDEPVNTYSSGMRSRLQFAMSLAFDFDIYISDEVTAAGDAAFRDKAAAAFKGMTNRAGLIMVAHSESTLRQFCEAGILLYQGKAQWFDKIEEAFKAYKDTVQK | not soluble
MGSDKIHHHHHHMALVRLSQIHFNFQTAAQPLFEDLNLTIAAGECHLIHGYTGCGKSTLLKLLQGILERPWEGEREIAEGATLGVVMQDPNVQLLRQTLGAEVAFALENLGVASSEMLLQVRSALRRVGLYISLDTPIASLSLGQRYRLMIAAQLVLEPDLLLLDEPWAQLDDQGVAELSAVLHQLKQQGVALLIVEHHRGVFKDLVTHRWQLSQGQLQALAPAECEATSEQVSWRESPAWPQGSAVIDSHGFTLAFRERQKLFDADSLLLFPGEIAALVGDNGCGKSTLLKSLAGIQADIDPLGIKVFGKKPKLGRFGADLALLHQRPSRQLFENTVIEEMQFSLKRFGLPLERAIELLGQLGLTTLARHSPHTLSYGQQHLIALASLACLRPKLLLLDDPFAGLDEHFTDKIVALLTELSRQGTALVIASHRPIAALPVDRLWRVVDGRLESLSASPQAYSRVG | not soluble
MIIKPRIRGFICTTTHPVGCEANVKEQIAYTKAQGPIKNAPKRVLVVGASSGYGLSSRIAAAFGGGASTIGVFFEKEGTEKKPGTAGFYNAAAFEKLAREEGLYAKSLNGDAFSNEAKQKTIDLIKEDLGQVDMVVYSLASPVRKMPETGELIRSALKPIGETYTSTAVDTNKDVIIEASVEPATEEEIKDTVTVMGGEDWELWINALSDAGVLAEGCKTVAYSYIGTELTWPIYWDGALGKAKMDLDRAAKALNEKLGATGGSANVAVLKSVVTQASSAIPVMPLYIAMVFKKMREEGVHEGCMEQIYRMFSQRLYKEDGSAAEVDDMNRLRLDDWELREDIQQHCRELWPQITTENLKELTDYVEYKEEFLKLFGFGVEGVDYEADVNPAVETDFIQI | soluble
MVLAVKVQIKEGEKVRRKLIELGALNREYKIKREEGFLLIPVKFPVEGFEVVEVELERVETRPNSYKDVVNIPRELRKFLPSSFDIIGNIAIIEIPSELQNYSNEIGGAIIRVHKSVKAVYMKGGSVEGEYRVRNLIHIAGEKITETIHRENGVRLKLDITKVYFSPRLATERMRVFKMAREGEIVFDMFAGVGPFSILLAKKARMVFACDINPWAIKYLEENIKLNKVKNIIPILSDVTKVCVKADRIIMNLPKYASRFLEHAMRCVNNGGIIHYYGFGPEKDPYGWHVKRINEVAGRLGVKVEILGKRIIRNYAPRQYNIAIDFRVSF | soluble
MGSDKIHHHHHHMAGVTKLTIAGFKSIRELRDFELRNLNVLIGANGAGKSNFIGFFKLLAEMYERRLQLFVQQQGGSDTLLHFSRKLTDKIEGELNFGTDYDHYRFELVVTNDNRLIFTNEQYWLHSRGSRPGEVGLLGGNKDESDLKKLAAQQKSPLIDDILNSTRVYHFHDTGEKAKVKQPHALNDTLRLKVDGANLAAYLRMLKTEHAESYRQIVDTIRLVAPFFDDFVFRADSASKIQLEWTERGDPDTPFTAHALSDGTLRFICLGTLLLQPWELMPATILIDEPELGLHPYAINLLADLLKRASEQKQLIVSTQSVELLDRLEPEDVIVVDRKDNASTFHRLDAVQLQDWLDDYSLGDLWKQNVLGGRPA | not soluble
MRRPPIVRCLFFLNDTIVLELEKTRVISERSNEEVIVVIRKTVKGTDGREYTFVAKEGTFEKLTGLGTTIRGHIPGTDSPFYGILEDGEEGLRAWIMTFRVVNRVPIDSETEEELVRLFLPLVERRRIDRSILLYVE | not soluble
MSLTSTAFAPRSLAPARITAVRVAPLLGESPQGGWSHEIKADDSVHALIALHTDAGISGYGSVFTNGALVQAAADVLTPLLLGENALEPDRIAEKLHQNTFWMGRGGSITHTISGIDIAMWDILGQATGLSVGRLLGGRHRDRVQPYCSLLMDMPERMEAVIAPHRAAGFRAFKIGWGPFGRRGDAGLDRAIIDAARTAVGTDAQLLVDAGASDAYWPNGLKWAMNTAAMLADYDVGWFEEALPPDAIEDFIALRRMSPVPIAGGEVLTRRQSFAPWLVRGAFDIVQPDVTKVGGISEQRRIAWMARDFGIRYVGHGWNTAFGLAADLQLAAAMPDCTLVEYIGGSAYVDRLTTRPFALDAEGMLAIPDLPGLGVSPDPALLARYTPDPEKFFSAEGHHHHHH | soluble
MAHHHHHHMNGRYVPQEVLGTGTYGRVLRCNDVLTGRQVAVKVSQRDAAYRRSAMNEIRVLQLLSHTDNALKMFDFFEDSGHLCIASELLCTDFYEVLRKNGFQPLSLDTVRIVGERVLRALAELHKAGYMHCDIKPANVMLRFNETDRSNLSDFTKTCLIDFGAARQFHENTYYDVQSLWYRAPEVMLGLPYTSHIDSWSVGCLLFELYTGKPLFAGENPREQMTSIMCTVGMPPMEAFSSGANVEKLQLPCLAMDVNAEANLRNLIASYRCNNTGFNHSYQLVGEESAFVNLLCALLQPDVRWRLSCTDALHHAFFTSRCLYHGNIVSANFSVFSPSSNGLQSSIDSNFGAVFSSTGNDARGFGGFEHLVPQQTQPHPNPHPQPRLKSESSPILPANSNSVPLVGLVGSPPGMVLPGTRPPASSQVNIPSSRVVLQNVMYPTPPMKIIQPVPFNTQQSQKALQQPQRVSANMLPVMVSAIGNPYSFPPCVRPECQVQNWEPVIFQPQQQIPPEVTPMFQCKILPGGCQYNYQGGADPSFYGASIKSGLHSAVYVPS | not soluble
MSLSETLLEKNWKFSKGDFPEAAQTDYNDTKWESVVIPHDWAIFGPFDMNNDLQNVAVTQNFEKKASLKTGRTGGLPYVGTGWYRTSFDVPADKEVTLLFDGAMSEARVYVNGQEACFWPFGYNSFHCNVTPFLNKDGKNNTLAVRLENRPQSSRWYPGAGLYRNVHLIVTEKVHIPVWGTQITTPHVSDEFAAVRLQTKIENAGEKTEIRIETEILSPDGKVVTRKENKGRINHGQPFEQNFIVNAPQLWSPESPALYKAVSKVYADNQLVDTYSTRFGIRSIEYIADKGFYLNGKHRKFQGVCNHHDLGPLGAAINVAALRHQLTLLKDMGCDAIRTSHNMPAPELVELCDEMGFMMMIEPFDEWDIAKCENGYHRYFNEWAERDMVNMLHNYRNNPCVVMWSIGNEVPTQCSPVGYKVAKFLQDICHREDPTRPVTCGMDQVTCVLANGFAAMIDIPGLNYRANRYQEAYDKLPQNLILGSETASTVSSRGVYKFPVKDKKSAQYDDHQCSSYDVEACSWSNIPDEDFALADDHHWTIGQFVWTGFDYLGEPSPYDTDAWPNHSSMFGIIDLASLPKDRYYLYRSIWNKEAETLHILPHWTWPGREGEVTPVFVYTNYPAAELFINGKSYGKQSKNNSSLKSRYRLMWMDAIYEPGEVKVVAYDKDGKAVAEKSVRTASKPHHIELVSNRNELTADGKDLAYVTVKVVDKDGNLCPADSRLINFSVKGAGKYRAGANGDPTSLDLFHLPKMHAFNGMLTAIVQTNETAGEIILTAKAGGVKAGSIRLLTKEGHHHHHH | soluble
MGHAKHLIDGNIETFWHSRWQGGSDPLPYEIIIDMNHRVKIAQIELLPRGRGSNNPIKVVRFEASEDGTNWESIGQFGFTNQDAALKYYVKSSTARYIKLVIPDGVGNGTVAAIRELDVRGTVVNLEHHHHHH | not soluble
MPPGKKGQASSLGQNKVHFHKYNLILLPPDTISSHSSEERGLLWKHRLSQARTSYSSHVRILVRIRKMWEKTPHMRIGNIFFKKREL | not soluble
MGTLWWNGTFFTMVHEGDQVEAVFTEDGKIVAIGTAEELRQRYSTRINQEMNCDGAYVYPGFVDSHLHMIGLEHHHHHH | not soluble
MSLSVLNAKECVSPITRSVKYHQQSAEIRALQLQSYKMAKMALDNNLKLVKDKKPAVILDLDETVLNTFDYAGYLIKNCIKYTPETWDKFEKEGSLTLIPGALDFLEYANSKGVKIFYISNRTQKNKAFTLKTLKSFKLPQVSEESVLLKEKGKPKAVRRELVAKDYAIVLQVGDTLHDFDAIFAKDAKNSQEQRAKVLQNAQKFGTEWIILPNSLYGTWEDEPIKAWQNKKEGHHHHHH | soluble
SLSRPWQGKGCATLWASVDHRFQINLRGVIDLLSHHLYSSPDVYIRELLQNATDAIRARQHLEPGHEGSIRIELIEKQDGGPPTLLFSDDGIGLTEEEIHRFLATIGESSKREVLAERRGDFIGQFGIGLLSCFMVCDEVLVVTRSAQGGSPTMEWRGRHDGIYTVRPSGHPLERPGTQVFLVARPDAASLFTPQRVRELALHYGGLLPFPIHLTAGGYSGRINTEG | soluble
